Assay results as given in patent US6706266, “Oncostatin M antagonists” (SmithKline Beecham Corporation).
Values joined by “and” are separate entries in the source; they are usually repeats but may differ in a detail not shown here. Identical values can stand only once.

Legend:
gp130 on HepG2 B6 cells = biological target: T1, gp130 on HepG2 B6 cells (UniProt P40189 23-918, limits assumed); experiment: cell-based or functional assay
T1 sequence (looked up): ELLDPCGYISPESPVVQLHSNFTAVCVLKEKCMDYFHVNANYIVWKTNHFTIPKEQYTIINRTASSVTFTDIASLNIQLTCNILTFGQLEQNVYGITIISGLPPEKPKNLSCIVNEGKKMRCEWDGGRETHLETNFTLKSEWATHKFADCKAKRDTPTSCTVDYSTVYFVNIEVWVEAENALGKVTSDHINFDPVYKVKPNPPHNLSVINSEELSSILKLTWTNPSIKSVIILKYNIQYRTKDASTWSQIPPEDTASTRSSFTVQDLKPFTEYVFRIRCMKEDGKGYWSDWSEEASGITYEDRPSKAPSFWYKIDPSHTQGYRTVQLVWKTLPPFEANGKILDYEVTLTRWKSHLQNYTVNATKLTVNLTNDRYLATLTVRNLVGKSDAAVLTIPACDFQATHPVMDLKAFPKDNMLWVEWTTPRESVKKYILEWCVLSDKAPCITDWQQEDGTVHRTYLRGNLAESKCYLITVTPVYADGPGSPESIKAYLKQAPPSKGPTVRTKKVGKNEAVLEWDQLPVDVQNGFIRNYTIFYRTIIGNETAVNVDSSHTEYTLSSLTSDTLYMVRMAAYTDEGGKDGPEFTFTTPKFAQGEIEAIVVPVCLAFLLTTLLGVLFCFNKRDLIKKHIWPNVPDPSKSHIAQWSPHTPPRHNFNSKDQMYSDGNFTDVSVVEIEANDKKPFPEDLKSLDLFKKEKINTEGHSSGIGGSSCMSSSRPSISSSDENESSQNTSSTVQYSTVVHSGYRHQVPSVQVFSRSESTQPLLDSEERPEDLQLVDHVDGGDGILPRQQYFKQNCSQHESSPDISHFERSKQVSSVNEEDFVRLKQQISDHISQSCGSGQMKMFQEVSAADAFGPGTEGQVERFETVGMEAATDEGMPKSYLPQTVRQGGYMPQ

gp130-Fc fusion protein [1] = biological target: T2, gp130-Fc fusion protein (human, UniProt P40189 23-619); experiment: competition ELISA: OSM-GST titrated against plate-bound wt OSM for gp130-Fc; mean
T2 construct: extracellular domain; not shown: Fc fragment of human IgG1
T2 sequence (looked up): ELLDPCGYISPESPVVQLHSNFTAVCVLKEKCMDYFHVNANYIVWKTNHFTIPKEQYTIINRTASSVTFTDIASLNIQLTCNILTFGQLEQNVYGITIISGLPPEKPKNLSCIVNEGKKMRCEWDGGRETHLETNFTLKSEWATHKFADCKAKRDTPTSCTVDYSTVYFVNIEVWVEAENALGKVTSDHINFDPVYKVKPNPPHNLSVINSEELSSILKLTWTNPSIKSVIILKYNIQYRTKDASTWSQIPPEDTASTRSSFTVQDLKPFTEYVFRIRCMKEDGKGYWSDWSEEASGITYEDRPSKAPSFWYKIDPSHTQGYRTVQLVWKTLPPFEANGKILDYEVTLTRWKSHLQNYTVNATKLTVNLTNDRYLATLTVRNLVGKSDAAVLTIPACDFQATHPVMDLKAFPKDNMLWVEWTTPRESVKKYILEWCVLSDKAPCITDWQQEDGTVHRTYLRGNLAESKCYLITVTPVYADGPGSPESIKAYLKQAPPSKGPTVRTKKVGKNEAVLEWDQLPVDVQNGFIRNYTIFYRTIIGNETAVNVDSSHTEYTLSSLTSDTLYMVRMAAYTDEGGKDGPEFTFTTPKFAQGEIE
Procedure: (§1) Plates were washed (×6 in PBS 0.05% tween 20, using Skatron Plate washer), tapped dry and blocked to reduce non-specific binding (200 µl/well, 1% BSA/PBS). Following 1 h incubation (room temperature on a shaking platform) the plates were tapped dry and wild type (wt) or mutant OSM-GST from Example 9b added (50 µl/well, 20–0.002 µg/ml, titrated in 1%BSA/PBS). As a positive control polyclonal anti-human OSM antibody (R&D Systems) was also tested (20–0.02 µg/ml). […] Following a 5 h incubation (room temperature on a shaking platform) the plates were washed (×6) and developed using ELISA Amplification System (Life Technologies) as manufacturer's instructions and the OD measured at 490 nm.

gp130-Fc fusion protein [2] = biological target: T2, gp130-Fc fusion protein; experiment: competition ELISA: OSM-GST titrated against plate-bound wt OSM for gp130-Fc; single experiment
Procedure: as §1

Binder	sPAP HepG2 B6 assay: Expt 1 % (EC50 as % of wild type EC50) (gp130 on HepG2 B6 cells) [%]	sPAP HepG2 B6 assay: Expt 1 EC50 (gp130 on HepG2 B6 cells) [ng/mL]	sPAP HepG2 B6 assay: Expt 2 % (EC50 as % of wild type EC50) (gp130 on HepG2 B6 cells) [%]	sPAP HepG2 B6 assay: Expt 2 EC50 (gp130 on HepG2 B6 cells) [ng/mL]	sPAP HepG2 B6 assay: Mean % of wild type EC50 (gp130 on HepG2 B6 cells) [%]	IC50 (gp130-Fc fusion protein [1]) [µg/mL]	IC50 (gp130-Fc fusion protein [2])
OSM-GST mutant L13A (ligand, Alanine mutant of m4; also called (6)L13A; 6 L13A; not shown: Its linker is left out) AAIGSCSKEYRVALGQLQKQTDLMQDTSRLLDPYIRIQGLDVPKLREHCRERPGAFPSEETLRGLGRRGFLQTLNATLGCVLHRLADLEQRLPKAQDLERSGLNIEDLEKLQMARPNILGLRNNIYCMAQLLDNSDTAEPTKAGRGASQPPTPTPASDAFQRKLEGCRFLHGYHRFMHSVGRVFSKWGESPNRSRR	269	65.7	171	54.9	220	2.53	2.96 µg/mL and 1.99 µg/mL and 2.64 µg/mL
OSM-GST mutant N124A (ligand, not shown: a dimerising Fc or GST; large carriers; small tags and cut ends, Alanine mutant of m4; also called (23)N124A; 23 N124A) AAIGSCSKEYRVLLGQLQKQTDLMQDTSRLLDPYIRIQGLDVPKLREHCRERPGAFPSEETLRGLGRRGFLQTLNATLGCVLHRLADLEQRLPKAQDLERSGLNIEDLEKLQMARPNILGLRNAIYCMAQLLDNSDTAEPTKAGRGASQPPTPTPASDAFQRKLEGCRFLHGYHRFMHSVGRVFSKWGESPNRSRR	125	30.2	113	36.2	119	1.99	1.63 µg/mL and 1.95 µg/mL and 2.38 µg/mL
OSM-GST mutant Q18A (ligand, Alanine mutant of m4; also called (11)Q18A; 11 Q18A; not shown: Its linker is left out) AAIGSCSKEYRVLLGQLAKQTDLMQDTSRLLDPYIRIQGLDVPKLREHCRERPGAFPSEETLRGLGRRGFLQTLNATLGCVLHRLADLEQRLPKAQDLERSGLNIEDLEKLQMARPNILGLRNNIYCMAQLLDNSDTAEPTKAGRGASQPPTPTPASDAFQRKLEGCRFLHGYHRFMHSVGRVFSKWGESPNRSRR	84	20.2	68	21.7	76	0.395	0.32 µg/mL and 0.31 µg/mL and 0.555 µg/mL
OSM-GST mutant L119A (ligand, not shown: a dimerising Fc or GST; large carriers; small tags and cut ends, Alanine mutant of m4; also called (19)L119A; 19 L119A) AAIGSCSKEYRVLLGQLQKQTDLMQDTSRLLDPYIRIQGLDVPKLREHCRERPGAFPSEETLRGLGRRGFLQTLNATLGCVLHRLADLEQRLPKAQDLERSGLNIEDLEKLQMARPNIAGLRNNIYCMAQLLDNSDTAEPTKAGRGASQPPTPTPASDAFQRKLEGCRFLHGYHRFMHSVGRVFSKWGESPNRSRR	115	27.8	72	23	93.5	0.255	0.272 µg/mL and 0.266 µg/mL and 0.227 µg/mL
OSM-GST mutant L14A (ligand, Alanine mutant of m4; also called (7)L14A; 7 L14A; not shown: Its linker is left out) AAIGSCSKEYRVLAGQLQKQTDLMQDTSRLLDPYIRIQGLDVPKLREHCRERPGAFPSEETLRGLGRRGFLQTLNATLGCVLHRLADLEQRLPKAQDLERSGLNIEDLEKLQMARPNILGLRNNIYCMAQLLDNSDTAEPTKAGRGASQPPTPTPASDAFQRKLEGCRFLHGYHRFMHSVGRVFSKWGESPNRSRR	81	19.4	77	24.9	79	0.514	0.66 µg/mL and 0.47 µg/mL and 0.412 µg/mL
OSM-GST mutant M113A (ligand, not shown: a dimerising Fc or GST; large carriers; small tags and cut ends, Alanine mutant of m4; also called (16)M113; 16 M113A) AAIGSCSKEYRVLLGQLQKQTDLMQDTSRLLDPYIRIQGLDVPKLREHCRERPGAFPSEETLRGLGRRGFLQTLNATLGCVLHRLADLEQRLPKAQDLERSGLNIEDLEKLQAARPNILGLRNNIYCMAQLLDNSDTAEPTKAGRGASQPPTPTPASDAFQRKLEGCRFLHGYHRFMHSVGRVFSKWGESPNRSRR	106	25.6	78	25	92	0.321	0.511 µg/mL and 0.199 µg/mL and 0.252 µg/mL
OSM-GST mutant P116A (ligand, not shown: a dimerising Fc or GST; large carriers; small tags and cut ends, Alanine mutant of m4; also called (17)P116A; 17 P116A) AAIGSCSKEYRVLLGQLQKQTDLMQDTSRLLDPYIRIQGLDVPKLREHCRERPGAFPSEETLRGLGRRGFLQTLNATLGCVLHRLADLEQRLPKAQDLERSGLNIEDLEKLQMARANILGLRNNIYCMAQLLDNSDTAEPTKAGRGASQPPTPTPASDAFQRKLEGCRFLHGYHRFMHSVGRVFSKWGESPNRSRR	104	25	47	15	75.5	0.199	0.232 µg/mL and 0.169 µg/mL and 0.197 µg/mL
OSM-GST mutant L17A (ligand, Alanine mutant of m4; also called (10)L17A; 10 L17A; not shown: Its linker is left out) AAIGSCSKEYRVLLGQAQKQTDLMQDTSRLLDPYIRIQGLDVPKLREHCRERPGAFPSEETLRGLGRRGFLQTLNATLGCVLHRLADLEQRLPKAQDLERSGLNIEDLEKLQMARPNILGLRNNIYCMAQLLDNSDTAEPTKAGRGASQPPTPTPASDAFQRKLEGCRFLHGYHRFMHSVGRVFSKWGESPNRSRR	301	72.7	174	56	238	1.82	2.21 µg/mL and 1.9 µg/mL and 1.35 µg/mL
OSM-GST mutant N117A (ligand, not shown: a dimerising Fc or GST; large carriers; small tags and cut ends, Alanine mutant of m4; also called (18)N117A; 18 N117A) AAIGSCSKEYRVLLGQLQKQTDLMQDTSRLLDPYIRIQGLDVPKLREHCRERPGAFPSEETLRGLGRRGFLQTLNATLGCVLHRLADLEQRLPKAQDLERSGLNIEDLEKLQMARPAILGLRNNIYCMAQLLDNSDTAEPTKAGRGASQPPTPTPASDAFQRKLEGCRFLHGYHRFMHSVGRVFSKWGESPNRSRR	241	58	132	42.5	186	0.785	0.983 µg/mL and 0.756 µg/mL and 0.617 µg/mL
